Entries after “also recorded” stand apart in the source; their conditions may differ. Like-named read-outs stand apart in the source and are kept apart here.
Columns and labels:
[1] = molecular target: T1, hAng2-RBD (Homo sapiens, UniProt O15123); format: binding; details: for Relative Uptake (Da) Δ: 4B9
T1 construct: made in house; host or cells: HEK293F
T1 sequence (O15123 276-496): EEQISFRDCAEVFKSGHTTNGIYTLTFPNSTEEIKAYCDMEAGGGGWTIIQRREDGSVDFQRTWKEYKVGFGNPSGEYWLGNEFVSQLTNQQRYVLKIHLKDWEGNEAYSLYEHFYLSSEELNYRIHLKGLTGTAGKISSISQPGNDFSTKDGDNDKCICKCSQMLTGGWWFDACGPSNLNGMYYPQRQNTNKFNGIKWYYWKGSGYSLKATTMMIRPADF
Description: The antigenic determinants (epitopes) of hAng2 recognized by mouse monoclonal antibodies, 2C8 and 4B9, were analyzed by HDX-MS (Hydrogen/deuterium exchange-mass spectrometry) technique. HDX-MS analysis methods are described in the following articles; Houde D, Engen J R (2013) Methods Mol. Biol. 988: 269-89 and Houde et al. (2011) J. Pharm. Sci. 100 (6), 2071.
Recombinant hAng2-RBD protein was used to analyze the epitopes of antibodies 2C8 and 4B9. […] The prepared hAng2-RBD/antibody complexes were diluted 15 times with deuterium labeling buffer, labeled at various time, and then quenched with the same volume of quenching buffer. The labeling reaction time was 0 min (undeuterium), 0.33 min, 10 min, 60 min and 240 min. However, in undeuterium condition, the deuterium labeling buffer was replaced with equilibrium buffer and the reaction was immediately stopped with quenching buffer. For mass spectrometry, the deuterium labeled hAng2-RBD/antibody samples were loaded on a pepsin column and peptide digestion was proceeded.
The deuterium uptake difference between hAng2-RBD alone and the hAng2-RBD-antibody complex conditions was comparatively analyzed, and a region showing a distinct decrease in the deuterium uptake is either a peptide to which the antibody binds directly, or a structurally changed region. When the deuterium uptake difference between hAng2-RBD alone and the hAng2-RBD-antibody complex was 0.5-1 Da or more, it was considered significant.
In the case of antibody 4B9, it cannot be ruled out that an undetermined region (residues 25 to 40 of SEQ ID NO: 2) can be included in the scope of the epitope. The epitope analysis results for each antibody are shown in different colors on the 3D structure of hAng2-RBD, which was generated using PyMol software (FIG. 2).

[2] = molecular target: T2, hAng2 (Homo sapiens, UniProt O15123); assay: OCTET affinity of mouse monoclonal anti-Ang2 antibodies against hAng2; details: hAng2 fixed on AR2G biosensor, 1:1 binding model
T2 sequence (O15123 19-496): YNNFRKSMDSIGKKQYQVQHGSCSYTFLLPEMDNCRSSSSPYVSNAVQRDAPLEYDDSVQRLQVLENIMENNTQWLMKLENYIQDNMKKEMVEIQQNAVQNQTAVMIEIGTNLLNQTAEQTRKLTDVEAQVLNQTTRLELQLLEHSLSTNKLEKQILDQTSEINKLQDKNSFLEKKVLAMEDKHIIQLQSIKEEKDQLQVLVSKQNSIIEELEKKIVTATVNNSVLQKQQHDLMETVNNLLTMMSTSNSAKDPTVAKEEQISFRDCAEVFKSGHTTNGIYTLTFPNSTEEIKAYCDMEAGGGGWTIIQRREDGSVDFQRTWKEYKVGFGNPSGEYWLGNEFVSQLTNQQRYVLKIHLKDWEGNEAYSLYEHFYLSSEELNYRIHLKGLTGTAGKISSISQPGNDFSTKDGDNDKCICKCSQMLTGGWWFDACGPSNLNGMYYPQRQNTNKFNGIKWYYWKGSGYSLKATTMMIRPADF
Description: The affinity of mouse monoclonal antibody against hAng2 was measured using OCTET® system (ForteBio, real-time, label-free bio-layer interferometry system for determination of affinity, kinetics, and concentration). Specifically, buffer and samples were measured in total 200 μl/well using Black 96-well plates (96 well F-type black plates, Greiner). The biosensor used for affinity measurements was hydrated for 10 min before measurement with AR2G tip (ForteBio OCTET®). After the hydration, hAng2 was diluted in 10 mM sodium acetate, pH 6.0 buffer at a concentration of 10 μg/ml, fixed on AR2G biosensor, and blocked with 1M ethanolamine. The mouse monoclonal anti-Ang2 antibodies were diluted to 50, 25, 12.5, 6.25, 3.125, and 0 nM with 1× kinetic buffer, and subjected to association for 300 seconds and dissociation for 900 seconds. For affinity measurement (KD), the association rate (K-on) and dissociation rate (K-off) were analyzed by binding curve (global) and fitted to 1:1 binding model using OCTET® data analysis v9.0.0.10 program.

[3] = residues 14-23 (SEQ ID NO: 2), exposure time 0.00 min
[4] = residues 14-23 (SEQ ID NO: 2), exposure time 0.33 min
[5] = residues 14-23 (SEQ ID NO: 2), exposure time 10.00 min
[6] = residues 14-23 (SEQ ID NO: 2), exposure time 60.00 min
[7] = residues 14-23 (SEQ ID NO: 2), exposure time 240.00 min
[8] = residues 14-24 (SEQ ID NO: 2), exposure time 0.00 min
[9] = residues 14-24 (SEQ ID NO: 2), exposure time 0.33 min
[10] = residues 14-24 (SEQ ID NO: 2), exposure time 10.00 min
[11] = residues 14-24 (SEQ ID NO: 2), exposure time 60.00 min
[12] = residues 14-24 (SEQ ID NO: 2), exposure time 240.00 min
[13] = residues 41-47 (SEQ ID NO: 2), exposure time 0.00 min
[14] = residues 41-47 (SEQ ID NO: 2), exposure time 0.33 min
[15] = residues 41-47 (SEQ ID NO: 2), exposure time 10.00 min
[16] = residues 41-47 (SEQ ID NO: 2), exposure time 60.00 min
[17] = residues 41-47 (SEQ ID NO: 2), exposure time 240.00 min
[18] = residues 47-60 (SEQ ID NO: 2), exposure time 0.00 min
[19] = residues 47-60 (SEQ ID NO: 2), exposure time 0.33 min
[20] = residues 47-60 (SEQ ID NO: 2), exposure time 10.00 min
[21] = residues 47-60 (SEQ ID NO: 2), exposure time 60.00 min
[22] = residues 47-60 (SEQ ID NO: 2), exposure time 240.00 min

B1: 4B9: mouse monoclonal anti-Ang2 antibody; VH SEQ ID NO: 9, VL SEQ ID NO: 11; hybridoma KCLRF-BP-00418 (antibody, V domains shown)
VH: EVQLVESGGGLVKPGGSLKLSCAASGFTFSDYYMYWVRQTPEKRLEWVATISVGGSFTYYPDSVKGRFTISRDNAKNNLYLQMSSLKSEDTAMYYCARDWGLRPWFVYWGQGTLVTVSA
VL: DIVMTQSHKFMSTSVGDRVSITCKASQDVSTAVAWYQQKPGQSPKLLIYWASTRHTGVPDRFTGSGSGTDYTLTISSVQAEDLALYYCQQHYSTPPTFGSGTKLEIK
modifications: Heavy Chain Variable Region; Light Chain Variable Region
notes: mouse monoclonal anti-Ang2 antibody; hybridoma KCLRF-BP-00418
Relative Uptake (Da) Δ [1, 3]: 0.25 Da
Relative Uptake (Da) Δ [1, 4]: 0.34 Da
Relative Uptake (Da) Δ [1, 5]: 0.83 Da
Relative Uptake (Da) Δ [1, 6]: 0.78 Da
Relative Uptake (Da) Δ [1, 7]: 0.60 Da
Relative Uptake (Da) Δ [1, 8]: 0.01 Da
Relative Uptake (Da) Δ [1, 9]: 0.33 Da
Relative Uptake (Da) Δ [1, 10]: 1.50 Da
Relative Uptake (Da) Δ [1, 11]: 1.35 Da
Relative Uptake (Da) Δ [1, 12]: 0.80 Da
Relative Uptake (Da) Δ [1, 13]: 0.15 Da
Relative Uptake (Da) Δ [1, 14]: 1.02 Da
Relative Uptake (Da) Δ [1, 15]: 0.92 Da
Relative Uptake (Da) Δ [1, 16]: 1.15 Da
Relative Uptake (Da) Δ [1, 17]: 1.18 Da
Relative Uptake (Da) Δ [1, 18]: 0.05 Da
Relative Uptake (Da) Δ [1, 19]: −0.13 Da
Relative Uptake (Da) Δ [1, 20]: −0.06 Da
Relative Uptake (Da) Δ [1, 21]: −0.01 Da
Relative Uptake (Da) Δ [1, 22]: −0.11 Da
epitope of hAng2-RBD to which the antibody binds ([1]; deuterium uptake difference 0.5-1 Da or more considered significant): residues 14 to 24 of SEQ ID NO: 2; also recorded: residues 41 to 47 of SEQ ID NO: 2
Relative Uptake (Da) hAng2-RBD + 4B9 [1, 3]: 0.55 Da
Relative Uptake (Da) hAng2-RBD + 4B9 [1, 4]: 0.97 Da
Relative Uptake (Da) hAng2-RBD + 4B9 [1, 5]: 1.38 Da
Relative Uptake (Da) hAng2-RBD + 4B9 [1, 6]: 1.49 Da
Relative Uptake (Da) hAng2-RBD + 4B9 [1, 7]: 1.66 Da
Relative Uptake (Da) hAng2-RBD + 4B9 [1, 8]: 0.76 Da
Relative Uptake (Da) hAng2-RBD + 4B9 [1, 9]: 1.27 Da
Relative Uptake (Da) hAng2-RBD + 4B9 [1, 10]: 1.75 Da
Relative Uptake (Da) hAng2-RBD + 4B9 [1, 11]: 2.05 Da
Relative Uptake (Da) hAng2-RBD + 4B9 [1, 12]: 2.61 Da
Relative Uptake (Da) hAng2-RBD + 4B9 [1, 13]: 0.16 Da
Relative Uptake (Da) hAng2-RBD + 4B9 [1, 14]: 0.20 Da
Relative Uptake (Da) hAng2-RBD + 4B9 [1, 15]: 0.43 Da
Relative Uptake (Da) hAng2-RBD + 4B9 [1, 16]: 0.54 Da
Relative Uptake (Da) hAng2-RBD + 4B9 [1, 17]: 0.61 Da
Relative Uptake (Da) hAng2-RBD + 4B9 [1, 18]: 0.96 Da
Relative Uptake (Da) hAng2-RBD + 4B9 [1, 19]: 1.94 Da
Relative Uptake (Da) hAng2-RBD + 4B9 [1, 20]: 2.53 Da
Relative Uptake (Da) hAng2-RBD + 4B9 [1, 21]: 2.69 Da
Relative Uptake (Da) hAng2-RBD + 4B9 [1, 22]: 3.06 Da
Koff [2]: 5.04e-07 s⁻¹
Kon [2]: 137000 M⁻¹ s⁻¹

From patent publication US12331106B2, “Anti-angiopoietin-2 antibodies that induce Tie2 activation” (Institute for Basic Science, priority 2018, dated 2025)
